Results taken from paper PMC6859894 (Nature, 2019).
Like-named read-outs stand apart in the source and are kept apart here.

Experiments:
cryo-EM structure [1] = biological target: the molecule itself; assay: cryo-EM structure
cryo-EM structure [2] = biological target: the molecule itself; assay: cryo-EM structure; remark: listed apart in the source

B1: chicken STING (Gallus gallus), full-length, C-terminal Flag tag (natural protein, chicken (Gallus gallus), UniProt E1C7U0 1-379, looked up)
chain: MPQDPSTRSSPARLLIPEPRAGRARHAACVLLAVCFVVLFLSGEPLAPIIRSVCTQLAALQLGVLLKGCCCLAEEIFHLHSRHHGSLWQVLCSCFPPRWYLALLLVGGSAYLDPPEDNGHSPRLALTLSCLCQLLVLALGLQKLSAVEVSELTESSKKNVAHGLAWSYYIGYLKVVLPRLKECMEELSRTNPMLRAHRDTWKLHILVPLGCDIWDDLEKADSNIQYLADLPETILTRAGIKRRVYKHSLYVIRDKDNKLRPCVLEFASPLQTLCAMSQDDCAAFSREQRLEQARLFYRSLRDILGSSKECAGLYRLIAYEEPAEPESHFLSGLILWHLQQQQREEYMVQEELPLGTSSVELSLQVSSSDLPQPLRSDCP
ratio of dimer to higher-order oligomers in the micrographs (cryo-EM structure [1]): ~4 dimer : higher-order oligomers
stoichiometry N (cryo-EM structure [1]): 4
stoichiometry N (cryo-EM structure [2]): 2
